Assay results published in paper PMC12557367 (2025).
Numbered stars: 1 amine (or outer) side, 2 acyl side, 3 side chain; on linkers, the order of the positions; unused ones are H or OH. Bridge positions count the residues as written; N and C are the ends. Square brackets hold non-standard residues; d marks the D form. * marks the point of attachment. (R)‑NODAGA = O=C(O)CN1CCN(CC(=O)O)CCN([C@H](CCC(=O)*)C(=O)O)CC1; DOTA = O=C(O)CN1CCN(CC(=O)O)CCN(CC(=O)*)CCN(CC(=O)O)CC1; TATA = O=C(CC[*:1])N1CN(C(=O)CC[*:2])CN(C(=O)CC[*:3])C1; Cys(et) = S-ethylcysteine, CCSC[C@H](N[*:1])C(=O)[*:2]; Ser(et) = O-ethylserine, CCOC[C@H](N[*:1])C(=O)[*:2]; 1Nal = N[C@@H](Cc1cccc2ccccc12)C(=O)O; 2Nal = N[C@@H](Cc1ccc2ccccc2c1)C(=O)O; Hyp = O=C(O)[C@@H]1C[C@@H](O)CN1; hArg = N=C(N)NCCCC[C@H](N)C(=O)O; Met(O) = CS(=O)CC[C@H](N)C(=O)O; SeMet = C[Se]CC[C@H](N)C(=O)O; Nle = CCCC[C@H](N)C(=O)O

T1: recombinant human nectin-4 (human, UniProt Q96NY8 32-349)
T1 chain: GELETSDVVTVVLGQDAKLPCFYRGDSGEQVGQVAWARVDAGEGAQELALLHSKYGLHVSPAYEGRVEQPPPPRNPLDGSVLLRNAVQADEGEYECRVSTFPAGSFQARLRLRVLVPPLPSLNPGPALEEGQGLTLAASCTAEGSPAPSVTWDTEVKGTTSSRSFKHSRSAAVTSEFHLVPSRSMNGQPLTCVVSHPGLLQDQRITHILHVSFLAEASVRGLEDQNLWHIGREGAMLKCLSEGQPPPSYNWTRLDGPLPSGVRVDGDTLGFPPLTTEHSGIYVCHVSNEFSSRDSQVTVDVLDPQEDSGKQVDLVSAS


Key:
[1] = target: T1, recombinant human nectin-4; test: FP
[2] = target: T1, recombinant human nectin-4; test: SPR
[3] = target: T1, recombinant human nectin-4; test: SPR

Row | Binder | IC50 [1] | koff [2] | Kd [3]
1 | {(R)‑NODAGA}-CP[2Nal][dD]CMRDWSTP[Hyp]WC-NH2 (linker 1-5-15 via TATA) [8a] | 479 nM |  | 
2 | H-CP[1Nal][dD]CM[hArg]DWSTP[Hyp]WC-NH2 (linker 1-5-15 via TATA) [1c] | 51.8 nM |  | 
3 | {(R)‑NODAGA}-CP[1Nal][dD]C[Ser(et)][hArg]DWSTP[Hyp]WC-NH2 (linker 1-5-15 via TATA; SMILES CCOC[C@@H]1NC(=O)[C@@H]2CSCCC(=O)N3CN(CN(C3)C(=O)CCSC[C@H](NC(=O)CC[C@H](C(=O)O)N3CCN(CC(=O)O)CCN(CC(=O)O)CC3)C(=O)N3CCC[C@H]3C(=O)N[C@@H](Cc3cccc4ccccc34)C(=O)N[C@H](CC(=O)O)C(=O)N2)C(=O)CCSC[C@@H](C(N)=O)NC(=O)[C@H](Cc2c[nH]c3ccccc23)NC(=O)[C@@H]2C[C@@H](O)CN2C(=O)[C@@H]2CCCN2C(=O)[C@H]([C@@H](C)O)NC(=O)[C@H](CO)NC(=O)[C@H](Cc2c[nH]c3ccccc23)NC(=O)[C@H](CC(=O)O)NC(=O)[C@H](CCCCNC(=N)N)NC1=O) [6] | 379 nM |  | 
4 | Ac-CP[1Nal][dD]C[Nle][hArg]DWSTP[Hyp]WC-NH2 (linker 1-5-15 via TATA) [3b] | 31.5 nM |  | 
5 | {DOTA}-CP[1Nal][dD]CM[hArg]DWSTP[Hyp]WC-NH2 (linker 1-5-15 via TATA) [1f] | 177 nM |  | 
6 | Ac-CP[1Nal][dD]CM[hArg]DWSTP[Hyp]WC-NH2 (linker 1-5-15 via TATA) [1d (BCY8126)] | 34.7 nM |  | 
7 | {(R)‑NODAGA}-CP[1Nal][dD]C[SeMet][hArg]DWSTP[Hyp]WC-NH2 (linker 1-5-15 via TATA) [5] | 48.7 nM |  | 
8 | {(R)‑NODAGA}-CP[2Nal][dD]CM[hArg]DWSTP[Hyp]WC-NH2 (linker 1-5-15 via TATA) [9] | 270 nM | 0.0361 s⁻¹ | 2.85 nM
9 | {(R)‑NODAGA}-CP[1Nal][dD]CM[hArg]DWSTP[Hyp]WC-NH2 (linker 1-5-15 via TATA; also: NODAGA complexed with natCu) [natCu-1e] | 23.7 nM |  | 
10 | {DOTA}-CP[2Nal][dD]CMRDWSTP[Hyp]WC-NH2 (linker 1-5-15 via TATA) [8c] | 3290 nM |  | 
11 | {(R)‑NODAGA}-CP[1Nal][dD]CMRDWSTP[Hyp]WC-NH2 (linker 1-5-15 via TATA) [10] | 32.1 nM | 0.00308 s⁻¹ | 
12 | {(R)‑NODAGA}-CP[1Nal][dD]CM[hArg]DWSTP[Hyp]WC-NH2 (linker 1-5-15 via TATA; also: NODAGA complexed with natGa) [natGa-1e] | 203 nM |  | 
13 | {(R)‑NODAGA}-CP[1Nal][dD]C[Nle][hArg]DWSTP[Hyp]WC-NH2 (linker 1-5-15 via TATA) [3a] | 41.6 nM |  | 
14 | {(R)‑NODAGA}-CP[1Nal][dD]C[Cys(et)][hArg]DWSTP[Hyp]WC-NH2 (linker 1-5-15 via TATA; SMILES CCSC[C@@H]1NC(=O)[C@@H]2CSCCC(=O)N3CN(CN(C3)C(=O)CCSC[C@H](NC(=O)CC[C@H](C(=O)O)N3CCN(CC(=O)O)CCN(CC(=O)O)CC3)C(=O)N3CCC[C@H]3C(=O)N[C@@H](Cc3cccc4ccccc34)C(=O)N[C@H](CC(=O)O)C(=O)N2)C(=O)CCSC[C@@H](C(N)=O)NC(=O)[C@H](Cc2c[nH]c3ccccc23)NC(=O)[C@@H]2C[C@@H](O)CN2C(=O)[C@@H]2CCCN2C(=O)[C@H]([C@@H](C)O)NC(=O)[C@H](CO)NC(=O)[C@H](Cc2c[nH]c3ccccc23)NC(=O)[C@H](CC(=O)O)NC(=O)[C@H](CCCCNC(=N)N)NC1=O) [7] | 151 nM |  | 
15 | {(R)‑NODAGA}-CP[1Nal][dD]C[Nle][hArg]DWSTP[Hyp]WC-NH2 (linker 1-5-15 via TATA; also: NODAGA complexed with natCu) [natCu-3a] | 45.4 nM |  | 
16 | {(R)‑NODAGA}-CP[1Nal][dD]C[Met(O)][hArg]DWSTP[Hyp]WC-NH2 (linker 1-5-15 via TATA) [2] | 568 nM |  | 
17 | {DOTA}-CP[2Nal][dD]CMRDWSTP[Hyp]WC-OH (linker 1-5-15 via TATA) [8d (N188)] | 4220 nM |  | 
18 | {(R)‑NODAGA}-CP[1Nal][dD]CM[hArg]DWSTP[Hyp]WC-NH2 (linker 1-5-15 via TATA) [1e] | 35.6 nM |  | 
